{"source": "patent US20120196804A1", "assay_in_all_cases": "cell-based or functional assay", "key": {"GLP-1 receptor [1]": {"target": "GLP-1 receptor"}, "GLP-1 receptor [2]": {"target": "GLP-1 receptor", "remark": "listed apart in the source"}, "glucagon receptor": {"target": "glucagon receptor"}}, "note": "Read-outs that look alike come from different tables or passages of the source."}
{"substance": "GLP-1 (peptide)", "values": [{"measurement": "cAMP Induction, EC50 (luciferase reporter, HEK293)", "setting": "GLP-1 receptor [1]", "result": 0.04, "unit": "nM"}, {"measurement": "cAMP Induction, EC50 (luciferase reporter, HEK293)", "setting": "GLP-1 receptor [2]", "result": 0.05, "unit": "nM"}, {"measurement": "cAMP Induction, EC50 (luciferase reporter, HEK293)", "setting": "glucagon receptor", "result": "> 1000", "unit": "nM"}]}
